Columns and labels:
[1] = molecular target: T1, FtsQ (58–276) and FtsB (22–103) added together (Escherichia coli strain K-12 | E. coli, UniProt P06136 58-276; P0A6S5 22-103); test: SPR; FtsL (58–121) immobilised on a CM5 chip by amide coupling (~3,300 RU); Biacore T200, 20°C; 10 mM HEPES pH 7.4, 150 mM NaCl, 0.4% glycerol; FtsQ (58–276) and FtsB (22–103) from 40 µM each, alone or in combination; conditions: both partners purified
T1 construct: FtsQ, Escherichia coli K-12, periplasmic domain, residues 58-276; as m1; as m2; The two proteins were injected in combination (40 µM each at the start of the dilution series) over immobilised FtsL; also called FtsB and FtsQ; FtsQB complex; source: E. coli C41(DE3), each purified separately (HisTrap, Sephacryl S300), injected in combination

[2] = molecular target: T2, FtsQ (58–276), periplasmic domain of E. coli FtsQ (Escherichia coli strain K-12, UniProt P06136 58-276); test: SPR; FtsQ (58–276) immobilised on a CM5 chip by amide coupling (~1,000 RU); Biacore T200, 20°C; 10 mM HEPES pH 7.4, 150 mM NaCl, 0.4% glycerol; analytes injected 120 s, 600 s dissociation, 1:2 dilution series, triplicate; conditions: both partners purified
T2 construct: FtsQ, Escherichia coli K-12, periplasmic domain (alpha and beta domains), residues 58-276; construct printed as M-58-276-GSH6; No tag cleavage is described; also called FtsQ (residues 58 to 276); Q: M-58-276-GSH6; source: E. coli C41(DE3), purified (HisTrap, Sephacryl S300); not shown: His6, C-terminal, kept

[3] = molecular target: the molecule itself; test: crystal structure; FtsQ (58–276) with FtsB (22–103), co-purified complex at 6 mg/ml; P4(1)2(1)2, 2.6 Å, molecular replacement; 0.15 M potassium thiocyanate, 20% PEG 550 MME, 0.1 M sodium cacodylate pH 6.5, 19°C

T1 sequence (P06136 58-276, chain 1 of 2, one chain of several): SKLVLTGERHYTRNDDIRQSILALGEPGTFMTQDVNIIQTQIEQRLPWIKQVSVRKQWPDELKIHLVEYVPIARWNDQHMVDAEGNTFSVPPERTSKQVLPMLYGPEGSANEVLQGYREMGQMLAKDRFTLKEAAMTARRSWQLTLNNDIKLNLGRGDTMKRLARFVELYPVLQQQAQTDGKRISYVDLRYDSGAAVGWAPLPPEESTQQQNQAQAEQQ
T2 sequence (P06136 58-276): as the sequence (P06136 58-276, chain 1 of 2, one chain of several) above

Kd [1] [µM]	Kd [2] [µM]	Binder	binding result [3]
11		FtsL (58–121), periplasmic domain of E. coli FtsL (domain or fragment, UniProt P0AEN4 58-121, looked up, FtsL, E. coli, periplasmic domain, residues 58-121; Cloned into pET15b like FtsB; source: E. coli C41(DE3), purified (HisTrap, Sephacryl S300)) HHTRLLTAQREQLVLERDALDIEWRNLILEENALGDHSRVERIATEKLQMQHVDPSQENIVVQK	
	0.8	FtsB (22–103), periplasmic domain of E. coli FtsB (domain or fragment, UniProt P0A6S5 22-103, looked up, No tag cleavage is described; source: E. coli C41(DE3), purified (HisTrap, Sephacryl S300); not shown: His6, N-terminal, kept) GKNGIHDYTRVNDDVAAQQATNAKLKARNDQLFAEIDDLNGGQEALEERARNELSMTRPGETFYRLVPDASKRAQSAGQNNR	binds
